Data published in publication PMC8830681, “Circadian control of heparan sulfate levels times phagocytosis of amyloid beta aggregates” (PLoS Genetics, 2022).
Ends that are not written are not given here.

B1: Heparinase II: Recombinant Flavobacterial heparin lyase II; cleaves in both high- and low-sulfated positions (protein, UniProt C6XZB6 26-772, looked up)
Heparin and heparin-sulfate …: QTKADVVWKDVDGVSMPIPPKTHPRLYLREQQVPDLKNRMNDPKLKKVWADMIKMQEDWKPADIPEVKDFRFYFNQKGLTVRVELMALNYLMTKDPKVGREAITSIIDTLETATFKPAGDISRGIGLFMVTGAIVYDWCYDQLKPEEKTRFVKAFVRLAKMLECGYPPVKDKSIVGHASEWMIMRDLLSVGIAIYDEFPEMYNLAAGRFFKEHLVARNWFYPSHNYHQGMSYLNVRFTNDLFALWILDRMGAGNVFNPGQQFILYDAIYKRRPDGQILAGGDVDYSRKKPKYYTMPALLAGSYYKDEYLNYEFLKDPNVEPHCKLFEFLWRDTQLGSRKPDDLPLSRYSGSPFGWMIARTGWGPESVIAEMKVNEYSFLNHQHQDAGAFQIYYKGPLAIDAGSYTGSSGGYNSPHNKNFFKRTIAHNSLLIYDPKETFSSSGYGGSDHTDFAANDGGQRLPGKGWIAPRDLKEMLAGDFRTGKILAQGFGPDNQTPDYTYLKGDITAAYSAKVKEVKRSFLFLNLKDAKVPAAMIVFDKVVASNPDFKKFWLLHSIEQPEIKGNQITIKRTKNGDSGMLVNTALLPDAANSNITSIGGKGKDFWVFGTNYTNDPKPGTDEALERGEWRVEITPKKAAAEDYYLNVIQIADNTQQKLHEVKRIDGDKVVGVQLADRIVTFSKTSETVDRPFGFSVVGKGTFKFVMTDLLPGTWQVLKDGKILYPALSAKGDDGALYFEGTEGTYRFLR
B2: Heparinase I: Recombinant Flavobacterial heparin lyase I; cleaves in highly sulfated regions of HSPGs (protein, UniProt Q05819 22-384, looked up)
Heparin lyase I: QQKKSGNIPYRVNVQADSAKQKAIIDNKWVAVGINKPYALQYDDKLRFNGKPSYRFELKAEDNSLEGYAAGETKGRTELSYSYATTNDFKKFPPSVYQNAQKLKTVYHYGKGICEQGSSRSYTFSVYIPSSFPDNATTIFAQWHGAPSRTLVATPEGEIKTLSIEEFLALYDRMIFKKNIAHDKVEKKDKDGKITYVAGKPNGWKVEQGGYPTLAFGFSKGYFYIKANSDRQWLTDKADRNNANPENSEVMKPYSSEYKTSTIAYKMPFAQFPKDCWITFDVAIDWTKYGKEANTILKPGKLDVMMTYTKNKKPQKAHIVNQQEILIGRNDDDGYYFKFGIYRVGNSTVPVTYNLSGYSETAR
B3: Heparinase III: Recombinant Flavobacterial heparin lyase III; cleaves in low or unsulfated regions of HSPGs (protein, UniProt Q59289 25-659, looked up)
Heparin-sulfate lyase: QSSSITRKDFDHINLEYSGLEKVNKAVAAGNYDDAAKALLAYYREKSKAREPDFSNAEKPADIRQPIDKVTREMADKALVHQFQPHKGYGYFDYGKDINWQMWPVKDNEVRWQLHRVKWWQAMALVYHATGDEKYAREWVYQYSDWARKNPLGLSQDNDKFVWRPLEVSDRVQSLPPTFSLFVNSPAFTPAFLMEFLNSYHQQADYLSTHYAEQGNHRLFEAQRNLFAGVSFPEFKDSPRWRQTGISVLNTEIKKQVYADGMQFELSPIYHVAAIDIFLKAYGSAKRVNLEKEFPQSYVQTVENMIMALISISLPDYNTPMFGDSWITDKNFRMAQFASWARVFPANQAIKYFATDGKQGKAPNFLSKALSNAGFYTFRSGWDKNATVMVLKASPPGEFHAQPDNGTFELFIKGRNFTPDAGVFVYSGDEAIMKLRNWYRQTRIHSTLTLDNQNMVITKARQNKWETGNNLDVLTYTNPSYPNLDHQRSVLFINKKYFLVIDRAIGEATGNLGVHWQLKEDSNPVFDKTKNRVYTTYRDGNNLMIQSLNADRTSLNEEEGKVSYVYNKELKRPAFVFEKPKKNAGTQNFVSIVYPYDGQKAPEISIRENKGNDFEKGKLNLTLTINGKQQLVLVP

Key:
[1] = tested on: bone-marrow derived macrophages (BMDMs) from Per2::Luc C57BL/6J mice; experiment: Phagocytosis assay of HiLyte 488 labeled amyloid-beta by serum-shock synchronized macrophages (with or without heparinases); type: cell-based, mouse; conditions: for circadian oscillation of the peptide's own phagocytosis (in words): HiLyte 488 labeled peptide, 2 h uptake, mAβ42 every 4 h for 24 h (ECHO), Aβ40 at PS20 and PS32; for Hedges' g, phagocytosis vs Aβ42-alone at PS20 (nadir, CT8) / Hedges' g, phagocytosis vs Aβ42-alone at PS32 (zenith, CT20): >100 cells per replicate, g >0.2 small, >0.5 medium, >0.8 large effect; for Hedges' g, phagocytosis PS20 vs PS32 within the same treatment: for heparinases: Aβ42 phagocytosis in their presence; for effect of heparinase treatment on the daily oscillation of Aβ42 phagocytosis (in words): heparinase added immediately before HiLyte 488 Aβ42, cells sampled 2 h later
Text: To do so, we modified a previously-employed BMDM phagocytosis assay (as BMDMs are both models for activated microglia and are known to migrate into the brain in late-stage AD), to use fluorescently labeled Aβ42 to determine if the phagocytosis of Aβ42 is controlled by the circadian clock. In brief, BMDMs were derived from bone marrow progenitor cells extracted from Per2::Luc C57BL/6J mice and differentiated with recombinant Macrophage Colony Stimulating Factor (M-CSF), with flow cytometry confirming complete differentiation into naïve peripheral macrophages. […] 16 h after synchronization, confluent dishes of these BMDMs were treated HiLyte 488 labeled Aβ42 (Anaspec), in triplicate, every 4 h over a 24 h circadian period. BMDMs treated with labeled Aβ42 were harvested two hours after Aβ42 treatment and fixed with formalin. Total cellular fluorescence levels were analyzed with fluorescent confocal microscopy and quantified using a custom cell measurement MATLAB script (Fig 1A, S2 Fig, and S1 Table).
Bone marrow was harvested from the femurs and tibias of one 3–6-month-old male mouse using a 26 g needle and syringe filled with DMEM supplemented media. ACK lysing buffer (Lonza 10-548E) was used to lyse red blood cells in order to prevent erythrocyte contamination. Filtered bone marrow cells were counted using a BioRad TC20 automated cell counter and plated on 35 mm cell culture plates at a density of 1 x 10^6 in macrophage differentiation media. After three days of incubation at 37°C with 5% CO2, fresh macrophage differentiation media was added. After another 3 days of incubation, the cells were washed with 2 ml warm PBS per plate, and replaced with macrophage assay media, and the cultures were incubated for 24 h. Macrophage cultures were then washed with 2 ml warm PBS, macrophage serum starvation media was added, and the plates were incubated in the starve media for 24 h. Next, macrophage serum starvation media was removed, and macrophage serum shock media was added, and cultures were incubated for 2 h. Macrophage cultures were then washed with 2 ml warmed PBS each and macrophage media Luciferin was added. Cultures were sealed with grease and glass cover slips and placed in a LumiCycle 32 luminometer (Actimetrics) to confirm synchronization of circadian rhythmicity. Assays began 16 h post serum shock to allow the synchronized cells to return to homeostasis.
All amyloid-beta isoforms were reconstituted 24 h or less before experimentation in water and PBS (1:1) and were dissolved using sonication for approximately 30 min. The reconstituted Aβ was pooled from individual vials before aliquoting for each experimental replicate. The aliquots were then flash frozen and stored at -80°C until 20 min before use.
Using synchronized macrophages (as described above) starting at PS16 macrophages were treated every 4 h for 24 h, in triplicate, with 115 μl (0.25 mg/ml) of fluorescently labeled amyloid-beta (PS16, PS20, PS24, PS28, PS32, PS36, and PS40) and heparinases at the reported activity levels (S5 Table). The treated macrophages were then incubated at 37°C for 2 h. Following the two-hour incubation, the media was aspirated, and the macrophages were washed with 2ml of PBS three times before Cell Stripper (Corning 25-056-CI) was added to the cultures, which were then incubated at 37°C for 3 min. Detached macrophages were next centrifuged at 400 g for 5 min, the supernatant was aspirated, and the macrophage cell pellets were resuspended in formalin and incubated in the dark at room temperature for 30 min. Macrophages were then centrifuged for 5 min at 400 g, the supernatant was aspirated, and the macrophages were resuspended in 250 μL of PBS and kept at 4°C. The fixed macrophages were imaged using fluorescent microscopy within a week of the experiment. All fluorescent images from the phagocytosis experiments are available on Mendeley Data (doi: 10.17632/zrmgjyggmr.1). […]

[2] = Heparinase enzymatic activity; type: biochemical
Text: We hypothesized that the rhythmic oscillation of HSPGs may inhibit the phagocytosis of Aβ42 due to the antiphase relationship between Aβ42 phagocytosis and PG levels and the published repressive effect of HSPGs on Aβ42 phagocytosis (Figs 1 and 4). To validate this hypothesis, we individually purified Heparinases I, II, and III, removed endotoxins, and confirmed Heparinase enzymatic activity (see Methods) (S5 Table). Heparinase I cleaves between D-glucosamine and L-iduronic acid in highly sulfated regions, heparinase III cleaves between N-acetyl-D-glucosamine in low or unsulfated regions, and heparinase II cleaves in both positions. We then extracted, derived, synchronized, and exposed BMDMs to fluorescently-labeled Aβ42 every 4 h over one circadian day. We next added a mixture of Heparinase I, II, and III to cleave all forms of HSPGs, with each biological replicate receiving a decreasing concentration of total heparinases (Replicate 1: 0.9577mg/ml of total heparinases, Replicate 2: 0.5071 mg/ml of total heparinases, Replicate 3: 0.2794 mg/ml of total heparinases) of the mixture of the three heparinases (see S5 Table). Immediately following the addition of the heparinases, we added fluorescently labeled Aβ42 and sampled Aβ42 levels inside the cell 2 hours later. By using fluorescently labeled Aβ42, we controlled for endogenously generated Aβ, which can be affected by HSPG expression through its interaction with BACE1 processing of the amyloid precursor protein [67].
Heparinases were prepared as has been previously reported. All heparinases used were purified away from endotoxins using an Endotoxin Removal Kit from GenScript (L00338).

[3] = log10 mean cell fluorescence, triplicate
[4] = heparinase stock of the 'All Hep' experiment
[5] = heparinase stock of the 'Hep I only' / 'Hep III only' experiments

Molecule	Oscillation Type ([1]; ECHO v4.1 fit, average of 3 replicates, log10 mean cell fluorescence, 2 h uptake every 4 h PS16-PS40, WT Per2::Luc BMDMs)	circadian oscillation of the peptide's own phagocytosis (in words) ([1]; triplicate)	phagocytosis compared to human Aβ42 (in words) ([1]; every 4 h for 24 h, triplicate)	Hedges' g, phagocytosis vs Aβ42-alone at PS20 (nadir, CT8) [1, 3]	Hedges' g, phagocytosis vs Aβ42-alone at PS32 (zenith, CT20) [1, 3]	Hedges' g, total phagocytosis of Aβ40 vs Aβ42 at PS20 and PS32 [1, 3]	Hedges' g, phagocytosis PS20 vs PS32 within the same treatment [1, 3]	Activities (U/ml) [2, 4]	Activities (U/ml) [2, 5]	effect of heparinase treatment on the daily oscillation of Aβ42 phagocytosis (in words) ([1]; triplicate)
Mouse amyloid-beta 42 labeled with HiLyte 488 (DAEFGHDSGFEVRHQKLVFFAEDVGSNKGAIIGLMVGGVVIA; also: HiLyte 488 label, site not given here; UniProt P12023 672-713, looked up) [mAβ42, custom mouse Aβ42 labeled with HiLyte 488 from Anaspec (SQ-ANCPXXXX)]	Harmonic	did not have a circadian oscillation	increased phagocytosis compared to human Aβ42 phagocytosis at all sampled times	3.032	2.021					
Amyloid-beta 40 labeled with HiLyte 488 [Aβ40]		no oscillation in Aβ40 phagocytosis				0.2752	0.06734			
B1								1.048 U/ml		
B2				0.1328	0.635		0.1017	0.034 U/ml	0.332 U/ml	loss of daily oscillation
B3				0.5409	0.22		0.1663	20.212 U/ml	5.305 U/ml	oscillations in Aβ42 phagocytosis were also ablated
